Data taken from the supplement of paper PMC10724198.
± gives the standard deviation of the averaged measurements.

Key:
Saccharomyces cerevisiae [1] = experiment: protein stability index of tFT-peptide fusion (C-terminal peptide) (PSI (0-1 scale)); higher = more stable (slower turnover)
Experimental: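 MPS profiling in S. cerevisiae of the tFT-X12 degron library: putative degron peptides plus stable controls, 12 aa, fused to the C-terminus of a sfGFP-mCherry timer. Cells are FACS-sorted into 8 mCherry/sfGFP bins and deep-sequenced. PSI runs from 0 (unstable) to 1 (stable). Backgrounds are wild type, das1Δ and doa10Δ at 30 °C, and wild type, das1Δ, cdc34-1 and cdc53-1 at 37 °C; 2-3 technical replicates each.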

Saccharomyces cerevisiae [2] = experiment: as above; conditions: genetic background: wild type; temperature: 30 C
[3] = genetic background: cdc34-1, temperature: 37 C
[4] = genetic background: cdc53-1, temperature: 37 C
[5] = genetic background: das1 deletion, temperature: 30 C
[6] = genetic background: das1 deletion, temperature: 37 C
[7] = genetic background: doa10 deletion, temperature: 30 C
[8] = genetic background: wild type, temperature: 30 C
[9] = genetic background: wild type, temperature: 37 C
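Note: PSI is a weighted mean of sequencing reads over stability bins, variants kept only with over 10 reads, mCherry proximal and sfGFP distal, peptide attached via GGGS linker.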

Sequence	protein stability index (Saccharomyces cerevisiae [1]; [3])	protein stability index (Saccharomyces cerevisiae [1]; [4])	protein stability index (Saccharomyces cerevisiae [1]; [5])	protein stability index (Saccharomyces cerevisiae [1]; [6])	protein stability index (Saccharomyces cerevisiae [1]; [7])	protein stability index (Saccharomyces cerevisiae [1]; [8])	protein stability index (Saccharomyces cerevisiae [1]; [9])	protein stability index (Saccharomyces cerevisiae [2])
EWVWVVFSCVSW	0.303 ± 0.027	0.429 ± 0.0099	0.307 ± 0.029	0.435 ± 0.012	0.2932 ± 0.0027	0.32 ± 0.012	0.432 ± 0.024	0.3472 ± 0.0015
FAIRMHCLIFRC	0.123 ± 0.05	0.15 ± 0.024	0.26 ± 0.048	0.343 ± 0.036	0.2 ± 0.0056	0.124 ± 0.02	0.185 ± 0.0043	0.19 ± 0.0057
FCSVFAHFLLCH	0.382 ± 0.011	0.443 ± 0.0052	0.4 ± 0.013	0.49 ± 0.0094	0.193 ± 0.005	0.207 ± 0.013	0.271 ± 0.0043	0.264 ± 0.0032
FFCCVLFSIVVY	0.0536 ± 0.029	0.0863 ± 0.019	0.129 ± 0.026	0.167 ± 0.002	0.103 ± 0.0065	0.104 ± 0.028	0.114 ± 0.024	0.171 ± 0.0089
FFFSFSFPFLSF	0.462 ± 0.014	0.481 ± 0.027	0.464 ± 0.023	0.559 ± 0.0068	0.55 ± 0.022	0.477 ± 0.018	0.555 ± 0.031	0.518 ± 0.034
FFFSLFFVLFFA	0.284 ± 0.035	0.23 ± 0.011	0.21 ± 0.035	0.348 ± 0.061	0.323 ± 0.028	0.2 ± 0.022	0.314 ± 0.013	0.22 ± 0.0051
FFGRWWWSFLLA	0.582 ± 0.038	0.634 ± 0.0095	0.538 ± 0.019	0.663 ± 0.012	0.262 ± 0.0098	0.261 ± 0.033	0.443 ± 0.026	0.364 ± 0.026
FFLDVMFLLFFF	0.501 ± 0.062		0.399 ± 0.036	0.524 ± 0.008	0.44 ± 0.022	0.399 ± 0.021	0.513 ± 0.0088	0.445 ± 0.037
FFLLFCASFLRC	0.281 ± 0.021	0.202 ± 0.01	0.317 ± 0.011	0.433 ± 0.053	0.3661 ± 0.0025	0.294 ± 0.029	0.354 ± 0.0037	0.381 ± 0.014
FFLSFICVMLCG	0.192 ± 0.024	0.247 ± 0.024	0.173 ± 0.013	0.303 ± 0.0073	0.165 ± 0.0019	0.158 ± 0.011	0.2575 ± 0.0025	0.237 ± 0.027
FFSGSVFMAVSL	0.387 ± 0.011	0.44 ± 0.0097	0.444 ± 0.04	0.399 ± 0.017	0.467 ± 0.036	0.433 ± 0.02	0.37901 ± 0.00016	0.408 ± 0.008
FFVWGVFLGVSW	0.229 ± 0.033	0.264 ± 0.016	0.265 ± 0.043	0.406 ± 0.005	0.297 ± 0.015	0.25 ± 0.026	0.362 ± 0.0063	0.358 ± 0.012
PLPSRLRRFVPV	0.656 ± 0.05	0.701 ± 0.0078	0.595 ± 0.0072	0.7072 ± 0.0018	0.613 ± 0.018	0.62 ± 0.014	0.6801 ± 0.0039	
PPCSLLPPPPAP	0.624 ± 0.049	0.7196 ± 0.0057	0.682 ± 0.043	0.713 ± 0.0088	0.715 ± 0.023	0.674 ± 0.056	0.687 ± 0.024	
RGGVRGVRSGRG	0.588 ± 0.016	0.716 ± 0.047	0.478 ± 0.014	0.565 ± 0.026	0.4741 ± 0.0046	0.485 ± 0.02	0.631 ± 0.045	
SLTHTPLGVTRT	0.657 ± 0.033	0.748 ± 0.012	0.6409 ± 0.0026	0.72832 ± 0.00066	0.635 ± 0.013	0.642 ± 0.011	0.704 ± 0.0086	
TGGGGRVSLGVG	0.359 ± 0.066	0.416 ± 0.0099	0.356 ± 0.013	0.42 ± 0.0044	0.377 ± 0.0077	0.359 ± 0.016	0.413 ± 0.0088	
TLDWKFGWGGIG	0.603 ± 0.011	0.579 ± 0.016	0.566 ± 0.024	0.6477 ± 0.0045	0.5685 ± 0.002	0.574 ± 0.021	0.645 ± 0.018	
VLRFVYDLVSAL	0.559 ± 0.036	0.599 ± 0.011	0.531 ± 0.029	0.643 ± 0.036	0.334 ± 0.0067	0.342 ± 0.021	0.435 ± 0.015	
VQTVRLVFQVLA	0.307 ± 0.0063	0.373 ± 0.049	0.25 ± 0.033	0.4 ± 0.0099	0.106 ± 0.0074	0.125 ± 0.031	0.207 ± 0.018	
VRWALLGVVVEG	0.388 ± 0.014	0.398 ± 0.0062	0.293 ± 0.029	0.4742 ± 0.00066	0.246 ± 0.0085	0.286 ± 0.027	0.428 ± 0.013	
